Assay results published in publication PMC4943861 (ACS chemical biology, 2015).
Each block holds one molecule with its values, some of them ahead of it.

Molecular target: activation loop-phosphorylated ERK2 (Homo sapiens, UniProt P28482)
Experiment: In vitro activity assay against activation loop-phosphorylated ERK2
Format: biochemical
Settings: read-out: IC50 against ERK2, triplicate

Sequence of activation loop-phosphorylated ERK2 (P28482 whole entry): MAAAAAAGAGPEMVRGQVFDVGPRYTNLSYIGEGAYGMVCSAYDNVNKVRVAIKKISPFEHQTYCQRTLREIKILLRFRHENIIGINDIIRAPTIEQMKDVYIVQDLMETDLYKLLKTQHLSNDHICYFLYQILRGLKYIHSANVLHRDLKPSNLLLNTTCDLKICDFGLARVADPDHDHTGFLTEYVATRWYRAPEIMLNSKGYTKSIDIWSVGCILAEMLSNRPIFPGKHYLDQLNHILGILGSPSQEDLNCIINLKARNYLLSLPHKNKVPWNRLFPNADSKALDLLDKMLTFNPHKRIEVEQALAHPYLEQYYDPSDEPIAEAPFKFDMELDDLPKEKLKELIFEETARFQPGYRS

IC50: 3900 nM
B1: SNAPtag-4: monovalent conjugate of 4 to SNAPtag (protein)
chain: GPGSDKDCEMKRTTLDSPLGKLELSGCEQGLHEIIFLGKGTSAADAVEVPAPAAVLGGPEPLMQATAWLNAYFHQPEAIEEFPVPALHHPVFQQESFTRQVLWKLLKVVKFGEVISYSHLAALAGNPAATAAVKTALSGNPVPILIPCHRVVQGDLDVGGYEGGLAVKEWLLAHEGHRLGKR
modifications: SNAPtag is engineered

IC50: 0.8 nM
B2: SNAP(pE59)-4: bivalent inhibitor of activation loop-phosphorylated ERK2: SNAP(pE59) labeled with 4 (protein)
chain: GPGSDKDCEMKRTTLDSPLGKLELSGCEQGLHEIIFLGKGTSAADAVEVPAPAAVLGGPEPLMQATAWLNAYFHQPEAIEEFPVPALHHPVFQQESFTRQVLWKLLKVVKFGEVISYSHLAALAGNPAATAAVKTALSGNPVPILIPCHRVVQGDLDVGGYEGGLAVKEWLLAHEGHRLGKRDLGKKLLEAARAGQDDEVRILMANGADVNALDEDGLTPLHLAAQLGHLEIVEVLLKYGADVNAEDNFGITPLHLAAIRGHLEIVEVLLKHGADVNAQDKFGKTAFDISIDNGNEDLAEILQKLN
